Experiment [1] concerns the target Nipah virus Bangladesh strain glycoprotein G (Nipah virus, Bangladesh strain (NiV-BD)). In words: cell-based or functional assay.
Experiment [2] addresses T1, Nipah virus Malaysia strain glycoprotein G (Nipah virus, Malaysia strain (NiV-MY), UniProt Q9IH62 71-602).
T1 sequence: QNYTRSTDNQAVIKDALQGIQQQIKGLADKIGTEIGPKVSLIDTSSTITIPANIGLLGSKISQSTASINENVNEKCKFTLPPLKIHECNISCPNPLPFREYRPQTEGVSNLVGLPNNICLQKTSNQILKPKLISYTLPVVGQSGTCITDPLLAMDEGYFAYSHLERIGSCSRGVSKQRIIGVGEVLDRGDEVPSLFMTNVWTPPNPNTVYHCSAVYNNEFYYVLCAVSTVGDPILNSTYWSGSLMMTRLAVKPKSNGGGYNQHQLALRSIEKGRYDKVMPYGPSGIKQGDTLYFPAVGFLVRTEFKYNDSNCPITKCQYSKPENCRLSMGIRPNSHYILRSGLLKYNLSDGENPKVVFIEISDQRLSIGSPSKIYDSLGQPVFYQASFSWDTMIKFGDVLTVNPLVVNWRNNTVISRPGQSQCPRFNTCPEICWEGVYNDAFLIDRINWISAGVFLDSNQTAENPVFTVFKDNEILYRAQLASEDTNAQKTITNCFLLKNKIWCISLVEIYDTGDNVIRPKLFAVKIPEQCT
In words: cell-based or functional assay.

In experiment [3] the target is T2, Hendra virus glycoprotein G (Hendra virus (HeV), UniProt O89343 71-604).
T2 sequence: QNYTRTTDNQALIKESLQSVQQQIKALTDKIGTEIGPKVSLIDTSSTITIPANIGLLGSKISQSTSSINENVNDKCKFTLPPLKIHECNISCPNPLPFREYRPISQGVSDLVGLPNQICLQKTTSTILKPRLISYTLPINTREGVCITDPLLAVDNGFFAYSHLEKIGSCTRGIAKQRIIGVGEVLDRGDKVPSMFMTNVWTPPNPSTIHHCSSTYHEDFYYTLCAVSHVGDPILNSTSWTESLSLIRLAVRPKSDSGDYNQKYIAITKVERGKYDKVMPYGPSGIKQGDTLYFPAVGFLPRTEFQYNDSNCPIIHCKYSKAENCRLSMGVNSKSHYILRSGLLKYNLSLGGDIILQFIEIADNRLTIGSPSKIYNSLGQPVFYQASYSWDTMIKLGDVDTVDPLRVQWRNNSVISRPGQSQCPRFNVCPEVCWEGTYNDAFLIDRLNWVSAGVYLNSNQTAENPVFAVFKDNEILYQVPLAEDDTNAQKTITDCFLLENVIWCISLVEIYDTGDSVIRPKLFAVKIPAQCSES
Description: cell-based or functional assay.

The target in experiment [4] is Nipah virus Bangladesh strain glycoprotein G (Nipah virus, Bangladesh strain (NiV-BD)). In words: ELISA, G protein coated at 1 µg/mL, antibody 1:3 dilutions from 20 µg/mL.
The target of experiment [5] is T1, Nipah virus Malaysia strain …. The description is as above.
In experiment [6] the target is T2, Hendra virus glycoprotein G. Described as above.
Experiment [7] addresses Nipah virus Bangladesh strain glycoprotein G (Nipah virus, Bangladesh strain (NiV-BD)).
Experiment [8] shares this target. This is another data set of the same source.
Experiment [9] has the same target. This is another data set of the same source.
The target in experiment [10] is T1, Nipah virus Malaysia strain ….
In experiment [11] the target is T2, Hendra virus glycoprotein G.
Experiment [12] concerns the target T1, Nipah virus Malaysia strain …. This is another data set of the same source.
Experiment [13] deals with T2, Hendra virus glycoprotein G. This is another data set of the same source.
Experiment [14] has as its target T1, Nipah virus Malaysia strain …. The source holds these as a separate data set.

Like-named read-outs stand apart in the source and are kept apart here. Some results are limits rather than exact numbers.

B1: 1B6 (antibody, V domains shown)
VH: VQLQESGPGPVKPSETLSLTCTVSGGSMSRGYDWNWIRQPPGKGLEWIGYIGDDGGRSNYNPSLKSRVTISKDSSKNQFSLKLGSVSAADTAVYYCARALRAIWYNSGWFYNSLDVWGRGVLVTVSS
VL: DIVLTQSPASLAVSPGQRATITCRASEGVSVFGRDLIHWYQQKPGQPPKLLIYQTSNRDTGVPARFSGSGSGTDFTLTINPVEADDAADYYCLQSKNSYSFGQGTKVEIKT
Usually EC50 stands for the concentration giving half of the maximal effect. A higher EC50 goes with weaker potency. In experiment [1], B1 came in with a percent neutralisation of NiV-BD pseudovirus at 1 µg/mL of 100%. In experiment [2], the “percent neutralisation of NiV-MY pseudovirus at 1 µg/mL” value was ~100%. Also, the “IC50, neutralisation of HeV pseudovirus (HIV backbone, luciferase, 293T cells)” value (“IC50, neutralisation of HeV pseudovirus” below) in experiment [3] is 0.0163 µg/mL. In addition, the “percent neutralisation of HeV pseudovirus at 1 µg/mL” value in [3] is ~100%. For the same molecule, the EC50 stood at 0.0284 µg/mL in experiment [4], 0.0639 µg/mL in [5] and 0.0529 µg/mL in [6].

B2: 2E7 (antibody, V domains shown)
VH: VQLQESGPGLVKPSETLSLTCSVSGGSISISNWWSWIRQSPGKGLEWIGYIYGSSGSTLYNPSLKSRVSISTDTSKNQFSLKLRSVTAADTAVYYCASPSIAATGDFDYWGQGVLVTVSS
VL: QSVLTQPPSASGAPGQSVTISCSGSSSNIGGNNVYWYQQLPGTAPKLLIYSSNQRPSGVPDRFSGSKSGTSASLAITGLRSEDEADYFCAVWDDSLGSPFFGGGTRLTVLR
notes: copies: 2 + 2
On to B2, for which the EC50 in experiment [5] is 0.0267 µg/mL; in experiment [6], 0.0701 µg/mL.

B3: 2A4 (antibody, V domains shown)
VH: QVQLQESGPGLVKPSETLSLTCPVSGASISSHWWTWIRQPPGKGLEWIGEIHGNSGSTNYNPSLKSRVTISKDASKNHFSLKLSSVTAADTAVYYCARDGHLGILVVFATSRFDVWGPGVLVTVSS
VL: DIQMTQSPSSLSASVGDTVTITCQASQGIANNLNWYQQKPGKAPKLLIYRASSLQSGIPSRFSGSGSGTDYTLTISSLQPEDFATYYCQQGYTYPRTFGQGTKVEIKT
In turn, B3 came in with a percent neutralisation of NiV-BD pseudovirus at 1 µg/mL in experiment [1] of 100%. Further, in experiment [2], the “percent neutralisation of NiV-MY pseudovirus at 1 µg/mL” value is ~100%. Further, the “IC50, neutralisation of HeV pseudovirus” value in experiment [3] worked out at 0.029 µg/mL. Further, the “percent neutralisation of HeV pseudovirus at 1 µg/mL” value in experiment [3] was ~100%. In addition, the EC50 in experiment [4] worked out at 0.0045 µg/mL; in experiment [5] it was 0.0112 µg/mL; in [6], 0.00737 µg/mL.

B4: 1E5 (antibody, V domains shown)
VH: VQLQESGPGVVKPSETLSLTCAVSGGSISDTYRWSWIRQPPGKGLEWIGYIYGSATSTYYNPSLSSRVTISKDMSKNQFSLNLNSVTAADTAVYYCARDYQYYYSGSYPTPHNWFDVWGPGVLVTVSS
VL: DIQMTQSPSSLSASVGDRVTITCRASQGIIDYLSWYQQKPGKAPKLLISTASNLESGVPSRFSGSGSGTEFTLTISSLQPEDFATYSCLQGYTTPYTFGQGTKVEIKT
The term Kd denotes a measure of binding affinity in units of concentration. For the molecule B4, the Kd in [7] was 0.171 nM; in experiment [10] it was < 0.001 nM; in [11], 0.785 nM. The IC50 (read off the curve) was 0.04 µg/mL in [8]; 0.06 µg/mL in experiment [9]; ~0.06 µg/mL in [12]; ~0.2 µg/mL in experiment [13]; ~0.1 µg/mL in experiment [14]. This molecule also registered a percent neutralisation of NiV-BD pseudovirus at 1 µg/mL in experiment [1] of 100%. In addition, the “percent neutralisation of NiV-MY pseudovirus at 1 µg/mL” value in experiment [2] was ~100%. For the same molecule, the “IC50, neutralisation of HeV pseudovirus” value in [3] was determined as 0.00574 µg/mL. In addition, the “percent neutralisation of HeV pseudovirus at 1 µg/mL” value in [3] was ~100%. Besides, the results for the concentration giving a half-maximal response (EC50) in experiment [4], in experiment [5] and in [6] were 0.0026 µg/mL, 0.00085 µg/mL and 0.00034 µg/mL, respectively.

For the origin of these results see US20240294614A1 (ACADEMY OF MILITARY MEDICAL SCIENCE PLA, published 2024).
